Measurements: patent US20210032343A1 (published 2021)

Key:
[1] = target: recombinant human PD-1 (product No. 10377-H08H, Beijing Yiqiao Shenzhou) (human, UniProt Q15116 25-167); experiment: ELISA
[2] = target: T1, recombinant human PD-1-Fc (human, UniProt Q15116 25-167); experiment: competition ELISA; blocking PD-1/PD-L1
[3] = target: T1, recombinant human PD-1-Fc; experiment: competition ELISA; blocking PD-1/PD-L2

T1 sequence (Q15116 25-167): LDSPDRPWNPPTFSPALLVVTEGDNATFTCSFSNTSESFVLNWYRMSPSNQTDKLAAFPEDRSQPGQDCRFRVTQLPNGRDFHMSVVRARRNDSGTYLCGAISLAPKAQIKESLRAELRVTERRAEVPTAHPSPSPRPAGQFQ
recombinant human PD-1 (product No. 10377-H08H, Beijing Yiqiao Shenzhou), sequence (Q15116 25-167): as above

B1: PD-1 monoclonal antibody (antibody, V domains shown)
VH: QVQLVQSGAEVKKPGSSVKVSCKASGGTFSSTAISWVRQAPGQGLEWMGGIWPSFGTASYAQKFQGRVTITADESTSTAYMELSSLRSEDTAVYYCARAEYSSTGIFDYWGQGTLVTVSS
VL: DIQMTQSPSSVSASVGDRVTITCRASQGISSWLAWYQQKPGKAPKLLISAASSLQSGVPSRFSGSGSGTDFTLTISSLQPEDFATYYCQQANHLPFTFGGGTKVEIK
- EC50 [1]: 0.18 nM
- IC50 [2]: 2.71 nM
- IC50 [3]: 2.89 nM
